Values joined by “and” are separate entries in the source; they are usually repeats but may differ in a detail not shown here. Equal entries are not always repeated.
T1: M. smegmatis TreS (recombinant) (M. smegmatis, UniProt A0R6E0 1-593)
T1 sequence (looked up): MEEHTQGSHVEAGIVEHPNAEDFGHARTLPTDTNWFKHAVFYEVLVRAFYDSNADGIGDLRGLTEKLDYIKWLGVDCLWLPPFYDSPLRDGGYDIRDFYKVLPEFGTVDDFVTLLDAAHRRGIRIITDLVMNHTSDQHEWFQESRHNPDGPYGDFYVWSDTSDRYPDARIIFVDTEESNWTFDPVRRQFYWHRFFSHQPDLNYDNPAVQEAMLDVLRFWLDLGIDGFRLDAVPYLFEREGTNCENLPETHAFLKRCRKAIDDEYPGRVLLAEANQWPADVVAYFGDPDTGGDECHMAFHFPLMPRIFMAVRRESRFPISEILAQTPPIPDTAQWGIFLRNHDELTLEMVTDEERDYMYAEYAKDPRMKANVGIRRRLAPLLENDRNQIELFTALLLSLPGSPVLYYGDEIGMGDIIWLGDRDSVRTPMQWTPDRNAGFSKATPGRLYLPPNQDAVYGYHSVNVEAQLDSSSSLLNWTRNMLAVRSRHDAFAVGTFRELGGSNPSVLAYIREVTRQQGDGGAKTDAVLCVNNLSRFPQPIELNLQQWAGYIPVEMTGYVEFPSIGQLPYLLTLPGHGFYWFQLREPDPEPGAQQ


Columns and labels:
[1] = biological target: T1, M. smegmatis TreS (recombinant); experiment: SEC; M. smegmatis Pep2-K145A with M. smegmatis TreS (Figure S6B); conditions not given; details: both partners purified
[2] = biological target: M. tuberculosis maltokinase Pep2 (M. tuberculosis H37Rv, UniProt O07177 1-455); experiment: SEC; details: both partners purified
AUC = biological target: the molecule itself; experiment: AUC

Binder | binding result [1] | binding result [2] | stoichiometry N (AUC)
M. smegmatis Pep2-K145A (enzyme) not shown | binds |  | 
M. tuberculosis trehalose synthase TreS (enzyme) MNEAEHSVEHPPVQGSHVEGGVVEHPDAKDFGSAAALPADPTWFKHAVFYEVLVRAFFDASADGSGDLRGLIDRLDYLQWLGIDCIWLPPFYDSPLRDGGYDIRDFYKVLPEFGTVDDFVALVDAAHRRGIRIITDLVMNHTSESHPWFQESRRDPDGPYGDYYVWSDTSERYTDARIIFVDTEESNWSFDPVRRQFYWHRFFSHQPDLNYDNPAVQEAMIDVIRFWLGLGIDGFRLDAVPYLFEREGTNCENLPETHAFLKRVRKVVDDEFPGRVLLAEANQWPGDVVEYFGDPNTGGDECHMAFHFPLMPRIFMAVRRESRFPISEIIAQTPPIPDMAQWGIFLRNHDELTLEMVTDEERDYMYAEYAKDPRMKANVGIRRRLAPLLDNDRNQIELFTALLLSLPGSPVLYYGDEIGMGDVIWLGDRDGVRIPMQWTPDRNAGFSTANPGRLYLPPSQDPVYGYQAVNVEAQRDTSTSLLNFTRTMLAVRRRHPAFAVGAFQELGGSNPSVLAYVRQVAGDDGDTVLCVNNLSRFPQPIELDLQQWTNYTPVELTGHVEFPRIGQVPYLLTLPGHGFYWFQLTTHEVGAPPTCGGERRL |  | binds | 4 and 8
